Experiments:
[1] = target: Clostridium difficile strain 630 alanine racemase, recombinant wild type (Clostridium difficile strain 630); experiment: SEC-MALS
[2] = system: C[C@H](N)C(=O)O; experiment: chiral HPLC of alanine enantiomers, initial rates; assay type: biochemical, Clostridioides difficile; conditions: L-Ala to D-Ala, 50 mM sodium borate pH 8.5, WT preparation partly cleaved at position 271
Excerpt: (§1) chiral HPLC of alanine enantiomers, initial rates on CdAlr (C. difficile alanine racemase; CdAlrWT)

[3] = system: C[C@@H](N)C(=O)O; experiment: chiral HPLC of alanine enantiomers, initial rates; assay type: biochemical, Clostridioides difficile; conditions: D-Ala to L-Ala, 50 mM sodium borate pH 8.5, WT preparation partly cleaved at position 271
Excerpt: as §1

Row | Substance | stoichiometry N [1] | Km [2] [mM] | kcat [2] [s⁻¹] | Km [3] [mM] | Vmax [3] [µmol/min/mg] | kcat [3] [s⁻¹]
1 | Clostridium difficile strain 630 alanine racemase, recombinant wild type (from UniProt A0AC59G415 1-385) (enzyme) | 2 | – | – | – | – | –
2 | CdAlr (C. difficile alanine racemase; CdAlrWT) (Clostridioides difficile 630) | – | 17.6 | 59.3 | 7 | 26.7 | 19.2

Reference: article PMC4089486, “Structural and biochemical analyses of alanine racemase from the multidrug-resistant Clostridium difficile strain 630” (Acta Crystallographica Section D: Biological Crystallography, 2014)
